How the values were obtained:
[1] = system: Nicotiana benthamiana phytoene desaturase; assay: Single PDS ssDNA oligonucleotide treatment, systemic silencing in organs and seed set (Example 12); format: in vivo
Procedure: Four-week old tobacco (Nicotiana benthamiana) plants were used in all treatments. Two fully expanded leaves (one cotyledon, one true leaf) were conditioned by dipping into freshly made surfactant solution (0.1% Silwet L-77 in double-distilled water) for a few seconds and allowed to dry for 15-30 minutes. Twenty microliters of a single-stranded DNA (ssDNA) 22-mer oligonucleotide with the sequence […] (SEQ ID NO:39), corresponding to the nucleotides at positions 1099-1120 of Nicotiana benthamiana phytoene desaturase (SEQ ID NO:2) was applied as a 25 micromolar solution in 0.01% Silwet L-77 in 5 millimolar sodium phosphate buffer, pH 6.8 to the top surface of each conditioned leaf for a total of 40 microliters (1 nanomole oligonucleotide) per plant. Control plants were treated with the Silwet solution without the DNA oligonucleotide.
Flowers of both control and ssDNA-treated plants were allowed to set seed. Seeds were collected from mature fruits, weighed, and allowed to germinate. Seed weights were identical (about 11 mg per 100 seeds) and seed morphology appeared similar between the ssDNA-treated and the control plants.
In a separate assay using a similar procedure, tobacco plants were conditioned by dipping in 0.1% Silwet L-77 in double-distilled water, allowed to dry for 15-30 minutes, and treated with the PDS ssDNA 22-mer (SEQ ID NO:39) applied as a 25 micromolar solution in 0.01% Silwet L-77 in 5 millimolar sodium phosphate buffer, pH 6.8 to the top surface of each conditioned leaf for a total of 40 microliters (1 nanomole oligonucleotide) per plant. Other plants were not conditioned with a surfactant treatment, but were treated only with 1 nanomole of the PDS ssDNA 22-mer (SEQ ID NO:39) applied either by infiltration with a needleless syringe (shown in FIG. 18B) or by hand application of drops to the leaf surface (not shown in FIG. 18B), and either as a 25 micromolar solution in 0.01% Silwet L-77 in 5 millimolar sodium phosphate buffer, pH 6.8 or as a 25 micromolar solution in 5 millimolar sodium phosphate buffer, pH 6.8 (without surfactant). Negative control plants were treated with the Silwet buffer solution without the DNA oligonucleotide. Results are depicted in FIG. 18B.

[2] = system: endogenous EPSPS; assay: EPSPS mRNA, EPSPS protein and shikimate in detached leaves after anti-sense ssDNA petiole uptake (Example 9); design: species or system Amaranthus palmeri; conditions: for increasing glyphosate efficacy, shikimate accumulation: 50 microgram/mL glyphosate; for suppressing levels of EPSPS mRNA and protein: 48 h incubation, #1 5 microM, #6 5 microM each (20 microM total), compared with other treatments
Procedure: Petioles of detached leaves of glyphosate-resistant Palmer amaranth were placed in 200 mM sucrose solution with oligonucleotides according to the treatments listed in Table 2. Control leaves were permeated with the anti-sense control (SEQ ID NO:14), and additionally treated with or without 50 micrograms/mL glyphosate. EPSPS mRNA, EPSPS protein, and shikimate levels were measured after 48 h incubation. To assess the effects of anti-sense ssDNA oligonucleotides on EPSPS mRNA, total leaf RNA was isolated and quantitative real-time RT-PCR was performed to compare EPSPS mRNA levels. To assess the effects of anti-sense ssDNA oligonucleotides on EPSPS protein, total leaf soluble protein was isolated, separated by SDS-PAGE, and EPSPS protein levels measured by Western blot using antibodies against maize EPSPS_TIPA. Effects of anti-sense ssDNA oligonucleotides on shikimate accumulation as an indication of suppression of EPSPS were assessed in two experiments: in experiment 1, the oligonucleotide-treated leaves were incubated with 50 microgram/mL glyphosate for an additional 48 h either by petiole uptake (control leaves were permeated with the anti-sense control (SEQ ID NO:14), and additionally treated with or without 50 micrograms/mL glyphosate); in experiment 2, leaf disc assays were performed on the oligonucleotide-treated leaves, and shikimate levels measured by HPLC (controls in this case were leaves that had not been treated with oligonucleotides but incubated with 50 microgram/mL glyphosate).

[3] = system: Palmer amaranth phytoene desaturase (PDS); assay: Sequence specificity of PDS dsRNA on Palmer amaranth, bleaching (Example 11); format: in vivo; conditions: for bleaching of leaves: 0.6 micromolar polynucleotide, 40 microliters per plant, observed 3 days post treatment; for bleaching of leaves (FIG. 17): separate assay
Procedure: Palmer amaranth plants having 16 copies of EPSPS and 5-8 inches high were treated with 0.1% Silwet L-77 solution freshly made with ddH2O. Four fully expanded leaves per plant were dipped into the Silwet L-77 solution for a few seconds, and allowed to dry for 30 minutes to 1 hour before application of the polynucleotide composition. Individual polynucleotide solutions were made for each of the 678 by Palmer PDS dsRNA, 198 by Palmer PDS dsRNA, the 685 by Nicotiana benthamiana PDS dsRNA, and the 192 by Nicotiana benthamiana PDS dsRNA (0.6 micromolar polynucleotide in 0.01% Silwet L-77, 5 mM sodium phosphate buffer, pH 6.8). 10 microliters of polynucleotide solution (or buffer as a control) was applied to the top surface of each of the four pre-treated leaves per plant to provide a total of 40 microliters for each plant. Plants were kept in a growth chamber, and leaf bleaching was observed 3 days post treatment.

[4] = system: mRNA encoding phytoene desaturase in tobacco (Nicotiana benthamiana); assay: Topical PDS dsRNA on tobacco, bleaching (Example 4); format: in vivo; conditions: for plant outcome: 15 days after treatment with dsRNA; for phytoene desaturase silencing, leaf bleaching: day 9 after dsRNA treatment, about 0.6 micromoles of dsRNA per plant; for Northern blot analysis, siRNAs corresponding to the dsRNAs: in vivo
Excerpt: This example illustrates the utility of the polynucleotide molecules of the invention as herbicidal agents. Two dsRNA polynucleotide molecules were designed to target overlapping segments of mRNA encoding phytoene desaturase in tobacco (Nicotiana benthamiana). With reference to SEQ ID NO:2 and FIG. 5, a dsRNA targeting a 192 nt length (shown in bold in FIG. 5) and a 685 nt length (shown in underline in FIG. 5) of the mRNA were made using an Ambion® MEGAscript® kit. Separate dsRNA solutions were prepared. Tobacco plant leaves were pretreated with surfactant solution prepared as in Example 1 and then treated with either one of the dsRNA solutions applying about […] of dsRNA per plant.

PDS ssDNA 22-mer: SEQ ID NO:39, GGCAGTACAATTAAAGGAGATG, positions 1099-1120 of SEQ ID NO:2 (DNA, backbone not given here; listed as Nicotiana benthamiana)
amount of seed produced per fruit ([1]; compared to control plants): reduced amount of seed produced per fruit
bleaching of apical leaves, stems, and flowers ([1]; leaves conditioned with 0.1% Silwet L-77, 1 nanomole per plant): all displayed bleaching
germination rate ([1]; seeds from treated plants, control 95 out of 100): 4 out of 100
seed weight ([1]; seeds from treated plants, identical to control): about 11 mg per 100 seeds
bleaching of apical leaves, stems, and flowers ([1]; without conditioning by Silwet L-77, 1 nanomole by infiltration or hand application of drops): displayed bleaching of apical leaves, stems, and flowers

Anti-sense_PO1: SEQ ID NO:8, ssDNA anti-sense to Amaranthus palmeri EPSPS (antisense ACCCTCCACGACTGCCCTTT; listed as DNA, chemistry not fully specified; listed as Amaranthus palmeri)
increasing glyphosate efficacy, shikimate accumulation [2]: increased accumulation of shikimate
suppressing levels of EPSPS mRNA and protein [2]: more efficacious

B1: #6: Anti-sense_PO1, PO2, PO3, PO4 (SEQ ID NOs: 8, 9, 10, 11) (nucleic acid, listed as Amaranthus palmeri)
antisense 1: ACCCTCCACGACTGCCCTTT
antisense 2: GTTTCCTTCACTCTCCAGC
antisense 3: GTAGCTTGAGCCATTATTGT
antisense 4: GTTGATGGTAGTAGCTTGAG
modifications: DNA, backbone not given here
increasing glyphosate efficacy, shikimate accumulation [2]: increased accumulation of shikimate
suppressing levels of EPSPS mRNA and protein [2]: more efficacious

B2: dsRNA targeting a 685 nt length: dsRNA to Nicotiana benthamiana PDS, positions 421-1105 of SEQ ID NO:38 (nucleic acid, listed as Nicotiana benthamiana)
DNA: GCAAGAGATGTCCTAGGTGGGAAGGTAGCTGCATGGAAAGATGATGATGGAGATTGGTACGAGACTGGGTTGCACATATTCTTTGGGGCTTACCCAAATATGCAGAACCTGTTTGGAGAACTAGGGATTGATGATCGGTTGCAGTGGAAGGAACATTCAATGATATTTGCGATGCCTAACAAGCCAGGGGAGTTCAGCCGCTTTGATTTTCCTGAAGCTCTTCCTGCGCCATTAAATGGAATTTTGGCCATACTAAAGAACAACGAAATGCTTACGTGGCCCGAGAAAGTCAAATTTGCTATTGGACTCTTGCCAGCAATGCTTGGAGGGCAATCTTATGTTGAAGCTCAAGACGGTTTAAGTGTTAAGGACTGGATGAGAAAGCAAGGTGTGCCTGATAGGGTGACAGATGAGGTGTTCATTGCCATGTCAAAGGCACTTAACTTCATAAACCCTGACGAGCTTTCGATGCAGTGCATTTTGATTGCTTTGAACAGATTTCTTCAGGAGAAACATGGTTCAAAAATGGCCTTTTTAGATGGTAACCCTCCTGAGAGACTTTGCATGCCGATTGTGGAACATATTGAGTCAAAAGGTGGCCAAGTCAGACTAAACTCACGAATAAAAAAGATCGAGCTGAATGAGGATGGAAGTGTCAAATGTTTTATACTGAATAATGGCAGTA
modifications: dsRNA of this region
bleaching of leaves [3]: did not show bleaching of leaves
plant outcome [4]: one half of the treated plants appeared to be dead and the other half of the plants had most of the above ground tissues bleached
phytoene desaturase silencing, leaf bleaching [4]: visible leaf bleaching on apical leaves
Northern blot analysis, siRNAs corresponding to the dsRNAs [4]: presence of siRNAs

B3: 198 by Palmer PDS dsRNA: dsRNA to positions 797-994 of SEQ ID NO:37 (nucleic acid, listed as Amaranthus palmeri)
sense: ACCGATTCCTGCAGGAGAAACATGGTTCTAAGATGGCCTTCCTAGACGGAAACCCTCCAGAGAGGCTGTGCATGCCTATTGTTAAACACATCGAGTCACTAGGTGGTGAAGTTAAACTTAACTCTCGTATACAAAAGATTCAGTTGGACCAGAGTGGAAGCGTGAAGAGTTTTTTGCTAAATAACGGGAGGGAAATAC
modifications: complementary strand
bleaching of leaves [3]: showed bleaching of leaves
bleaching of leaves (FIG. 17) [3]: showed bleaching of leaves

B4: 678 by Palmer PDS dsRNA: dsRNA to positions 317-994 of SEQ ID NO:37 (nucleic acid, listed as Amaranthus palmeri)
sense: TAGGAGGAAAGGTTGCAGCGTGGAAGGATGAGGATGGTGACTGGTATGAGACTGGGCTACATATATTCTTTGGGGCATATCCAAATGTCCAAAATCTATTTGGAGAACTTGGTATAAATGACCGACTGCAATGGAAGGAGCACTCTATGATTTTTGCAATGCCCAGCAAGCCCGGTGAATTCAGTCGCTTTGATTTTCCCGAAATCCTGCCTGCACCATTAAATGGCATATGGGCAATCCTAAGAAATAATGAAATGCTAACCTGGCCAGAAAAAATCAAGTTTGCCATTGGCTTGTTGCCTGCTATGGCAGGCGGACAGTCATATGTTGAAGCACAAGATGGTTTGAGTGTCCAAGAGTGGATGAGAAAACAAGGAGTACCCGATCGTGTAACTGATGATGTGTTTATTGCCATGTCAAAGGCACTGAACTTCATAAATCCCGATGAACTTTCAATGCAGTGCATCTTGATTGCTCTGAACCGATTCCTGCAGGAGAAACATGGTTCTAAGATGGCCTTCCTAGACGGAAACCCTCCAGAGAGGCTGTGCATGCCTATTGTTAAACACATCGAGTCACTAGGTGGTGAAGTTAAACTTAACTCTCGTATACAAAAGATTCAGTTGGACCAGAGTGGAAGCGTGAAGAGTTTTTTGCTAAATAACGGGAGGGAAATAC
modifications: complementary strand
bleaching of leaves [3]: showed bleaching of leaves
bleaching of leaves (FIG. 17) [3]: showed bleaching of leaves

B5: dsRNA targeting a 192 nt length: dsRNA to Nicotiana benthamiana PDS, positions 914-1105 of SEQ ID NO:38 (nucleic acid, listed as Nicotiana benthamiana)
DNA: ACAGATTTCTTCAGGAGAAACATGGTTCAAAAATGGCCTTTTTAGATGGTAACCCTCCTGAGAGACTTTGCATGCCGATTGTGGAACATATTGAGTCAAAAGGTGGCCAAGTCAGACTAAACTCACGAATAAAAAAGATCGAGCTGAATGAGGATGGAAGTGTCAAATGTTTTATACTGAATAATGGCAGTA
modifications: dsRNA of this region
bleaching of leaves [3]: did not show bleaching of leaves
plant outcome [4]: one half of the treated plants appeared to be dead and the other half of the plants had most of the above ground tissues bleached
phytoene desaturase silencing, leaf bleaching [4]: visible leaf bleaching on apical leaves
Northern blot analysis, siRNAs corresponding to the dsRNAs [4]: presence of siRNAs

From patent US20130047297A1, “POLYNUCLEOTIDE MOLECULES FOR GENE REGULATION IN PLANTS” (priority 2010, published 2013)
